# Data as given in patent US20100280227A1.
# Molecular target: human BAFF (residues 82-285) (human) (UniProt Q9Y275)
# Assay: BJAB cell competitive binding assay: soluble BR3-Fc keeps biotin-BAFF from BR3 on the cells
# Sequence of human BAFF (residues 82-285) (human) (Q9Y275 82-285 limits assumed): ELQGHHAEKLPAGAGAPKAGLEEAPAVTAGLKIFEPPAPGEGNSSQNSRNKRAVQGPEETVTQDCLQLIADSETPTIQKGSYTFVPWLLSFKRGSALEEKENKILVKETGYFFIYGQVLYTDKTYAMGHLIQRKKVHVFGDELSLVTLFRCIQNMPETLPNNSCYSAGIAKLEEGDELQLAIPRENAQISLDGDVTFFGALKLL
substance,measurement,value
hBR3Fc (Fc fusion),IC50,3.22 nM
